From publication PMC8956953 (The Journal of Biological Chemistry, 2022)

B1: S100 calcium-binding protein B, spotted on the ProtoArray (natural protein, human, UniProt P04271 1-92, looked up)
chain: MSELEKAMVALIDVFHQYSGREGDKHKLKKSELKELINNELSHFLEEIKEQEVVDKVMETLDNDGDGECDFQEFMAFVAMVTTACHEFFEHE
notes: also called S100β; not shown: GST, N-terminal, kept
B2: RPS6KA6, spotted on the ProtoArray (enzyme, human, UniProt Q9UK32 1-745, looked up)
chain: MLPFAPQDEPWDREMEVFSGGGASSGEVNGLKMVDEPMEEGEADSCHDEGVVKEIPITHHVKEGYEKADPAQFELLKVLGQGSFGKVFLVRKKTGPDAGQLYAMKVLKKASLKVRDRVRTKMERDILVEVNHPFIVKLHYAFQTEGKLYLILDFLRGGDVFTRLSKEVLFTEEDVKFYLAELALALDHLHQLGIVYRDLKPENILLDEIGHIKLTDFGLSKESVDQEKKAYSFCGTVEYMAPEVVNRRGHSQSADWWSYGVLMFEMLTGTLPFQGKDRNETMNMILKAKLGMPQFLSAEAQSLLRMLFKRNPANRLGSEGVEEIKRHLFFANIDWDKLYKREVQPPFKPASGKPDDTFCFDPEFTAKTPKDSPGLPASANAHQLFKGFSFVATSIAEEYKITPITSANVLPIVQINGNAAQFGEVYELKEDIGVGSYSVCKRCIHATTNMEFAVKIIDKSKRDPSEEIEILMRYGQHPNIITLKDVFDDGRYVYLVTDLMKGGELLDRILKQKCFSEREASDILYVISKTVDYLHCQGVVHRDLKPSNILYMDESASADSIRICDFGFAKQLRGENGLLLTPCYTANFVAPEVLMQQGYDAACDIWSLGVLFYTMLAGYTPFANGPNDTPEEILLRIGNGKFSLSGGNWDNISDGAKDLLSHMLHMDPHQRYTAEQILKHSWITHRDQLPNDQPKRNDVSHVVKGAMVATYSALTHKTFQPVLEPVAASSLAQRRSMKKRTSTGL
notes: human RPS6KA6 kinase; not shown: GST, N-terminal, kept
B3: YES1, spotted on the ProtoArray (enzyme)
chain: not shown
notes: human YES1 kinase; not shown: GST, N-terminal, kept

These binders were tested against T1, recombinant human full-length tau protein (htau40) (human, UniProt P10636-8 1-441) (assay: peptide or protein array; ProtoArray Human Protein Microarrays v5.1, ~9000 N-terminal GST-tagged human proteins spotted on nitrocellulose-coated slides; htau40 at 5 and 50 ng/μl in probe buffer (1x PBS, 0.1% Tween-20, 1x synthetic block), 90 min at 4 °C; detected with anti-tau K9JA and Alexa Fluor 647 secondary antibody). Details: both partners purified.
T1 construct: human microtubule-associated protein tau, longest CNS splicing variant 2N4R (htau40); also called recombinant htau40; 2N4R; source: E. coli-derived recombinant protein

| binding result | Binder |
| --- | --- |
| binds | B1 |
| binds | B2 |
| binds | B3 |
